Data from patent US20030130166A1, “Polynucleotide encoding a human junctional adhesion protein (JAM2)” (priority 1999, published 2003).
Bridges are numbered along the chain shown (N, C = ends). Where no end group is shown, it is not given here.

B1: JAM2-Fc (extracellular domain of human JAM2 fused to the constant region of mouse IgG-2a, secreted from Sf21 insect cells) (Fc fusion)
chain: FSAPKDQQVVTAVEYQEAILACKTPKKTVSSRLEWKKLGRSVSFVYYQQTLQGDFKNRAEMIDFNIRIKNVTRSDAGKYRCEVSAPSEQGQNLEEDTVTLEVLVAPAVPSCEVPSSALSGTVVELRCQDKEGNPAPEYTWFKDGIRLLENPRLGSQSTNSSYTMNTKTGTLQFNTVSKLDTGEYSCEARNSVGYRRCPGKRMQVDDLNIS
notes: In the assays it was captured on 96 well plates by goat anti-mouse IgG2a; also called recombinant JAM2; JAM2 extracellular domain; not shown: constant region of mouse IgG-2a (mIgG2a) from the modified pFastBac1 vector

How the values were obtained:
[1] = target: T1, human JAM3 (Junctional Adhesion Molecule 3), endogenous on HSB T cells (human, UniProt Q9BX67 32-310); test: adhesion of calcein-loaded HSB cells to captured JAM2-Fc in TBS+Ca/Mg/Mn (FIG. 7)
T1 construct: whole, on cells; also called cell surface JAM3; 43 kDa protein
T1 sequence (looked up): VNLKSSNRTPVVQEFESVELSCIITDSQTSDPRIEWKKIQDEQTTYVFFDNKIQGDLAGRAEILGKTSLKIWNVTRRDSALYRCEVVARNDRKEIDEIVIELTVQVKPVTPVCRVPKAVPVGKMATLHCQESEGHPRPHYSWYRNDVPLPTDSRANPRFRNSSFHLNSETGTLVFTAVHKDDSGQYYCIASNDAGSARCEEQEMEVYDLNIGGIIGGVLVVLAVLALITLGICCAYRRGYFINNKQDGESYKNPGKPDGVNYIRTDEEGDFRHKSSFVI
Method: In vitro adhesion assays were performed in 96 well plates essentially as described in Todderud, G., J. J. Leukoc. Biol. 52:85 (1992), herein incorporated by reference. Briefly, 50 μl of goat anti-mouse IgG2a was coated at 5 μg/ml in PBS and used to capture 4.8 pmoles of JAM2-Fc or mIgG2a (control). Various leukocyte cell lines i.e. T lymphocytes, HSB, HPB-ALL; B lymphocytes, RAMOS; monocytic cells, HL60, THP-1, and the erythroleukemic, K562 lines were labeled with calcein (Molecular Probes Inc., Eugene, Oreg.) at 50 μg/ml for 25 minutes at 37° C. with 250,000 cells/well in binding buffer that consisted of Tris buffered saline plus 1 mM each of CaCl₂, MgCl₂ and MnCl₂. Wells were washed 3×, lysed with 50 mM Tris (pH 7.5), 5 mM EDTA, 1% NP40, and fluorescence read in a Cytofluor with excitation at 485/20 nm and emission at 530/25 nm. Specific binding was calculated as fluorescence with JAM2-Fc minus fluorescence with mIgG2a. For antibody inhibition, protein captured on wells or HSB cells were incubated for 30 min at RT in binding buffer with 1:100×dilution of preimmune (normal mouse serum) or anti-JAM2 mouse polyclonal serum. […] Overall differences among experimental groups for each parameter were first assessed by one-way analysis of variance (ANOVA) and individual pairwise group comparisons were analyzed by Fisher's protected least significance difference (PLSD) post hoc test. […]

HSB cells = test: In vitro adhesion assay, calcein loaded cells on captured Fc fusion protein; assay type: cell-based
Method: (§1) Biol. 52:85 (1992), herein incorporated by reference.
(§2) The capacity of JAM2 extracellular domain to adhere to various leukocyte cell lines according to a previously established in vitro binding assay performed under static conditions was next examined (see Todderud, G., J. Leukoc, Biol. 52:85(1992)). Calcein loaded cells were allowed to interact with JAM2-Fc captured in 96 well plates in binding buffer (hereinafter “BB”) which contained TBS plus 1 mM calcium, magnesium and manganese. Non-specific binding of cells to captured mIgG2a was determined simultaneously and subtracted. […] Binding to the erythroleukemic K562 cell lines was non-existent.

K562 cell lines = test: as above; assay type: cell-based; conditions: binding buffer: TBS plus 1 mM calcium, magnesium and manganese; FIG. 7
Method: as §1, §2

HPB-ALL = test: as above; assay type: cell-based; conditions: binding buffer: TBS plus 1 mM calcium, magnesium and manganese; FIG. 7
Method: as §1, §2

[2] = target: T2, α4β1 integrin, endogenous on HSB T cells (UniProt P13612 34-1032; P05556 21-798, limits assumed); test: inhibition of Mn-enhanced adhesion of calcein-loaded HSB cells to captured JAM2-Fc (FIG. 12B)
T2 construct: whole, on cells; also called α4 integrin; alpha 4 integrin
T2 sequence (P13612 34-1032 limits assumed, chain 1 of 2): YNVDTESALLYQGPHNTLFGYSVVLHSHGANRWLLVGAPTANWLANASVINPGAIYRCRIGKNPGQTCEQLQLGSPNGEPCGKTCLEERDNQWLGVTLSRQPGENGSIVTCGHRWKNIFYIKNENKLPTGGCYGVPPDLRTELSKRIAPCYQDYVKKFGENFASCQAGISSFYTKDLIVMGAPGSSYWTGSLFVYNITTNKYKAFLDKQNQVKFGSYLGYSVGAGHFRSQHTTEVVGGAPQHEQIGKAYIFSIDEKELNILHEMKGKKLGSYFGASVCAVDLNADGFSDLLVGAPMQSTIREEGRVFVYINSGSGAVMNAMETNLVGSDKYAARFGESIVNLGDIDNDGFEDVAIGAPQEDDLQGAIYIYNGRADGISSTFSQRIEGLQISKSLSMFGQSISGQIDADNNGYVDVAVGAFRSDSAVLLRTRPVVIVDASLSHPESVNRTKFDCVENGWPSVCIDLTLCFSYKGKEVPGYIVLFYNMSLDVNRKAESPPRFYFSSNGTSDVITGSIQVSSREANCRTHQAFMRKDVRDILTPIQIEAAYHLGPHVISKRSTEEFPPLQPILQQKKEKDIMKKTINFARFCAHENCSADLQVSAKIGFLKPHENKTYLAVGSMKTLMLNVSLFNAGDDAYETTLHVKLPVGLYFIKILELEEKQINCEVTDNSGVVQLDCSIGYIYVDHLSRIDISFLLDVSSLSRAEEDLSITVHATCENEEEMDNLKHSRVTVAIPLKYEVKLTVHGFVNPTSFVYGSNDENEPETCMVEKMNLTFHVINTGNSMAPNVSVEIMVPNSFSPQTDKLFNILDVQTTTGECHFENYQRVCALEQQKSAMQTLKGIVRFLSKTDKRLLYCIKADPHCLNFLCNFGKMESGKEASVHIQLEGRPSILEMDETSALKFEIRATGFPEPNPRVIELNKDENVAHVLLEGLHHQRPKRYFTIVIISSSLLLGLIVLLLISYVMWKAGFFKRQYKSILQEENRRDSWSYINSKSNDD
T2 sequence (P05556 21-798 limits assumed, chain 2 of 2): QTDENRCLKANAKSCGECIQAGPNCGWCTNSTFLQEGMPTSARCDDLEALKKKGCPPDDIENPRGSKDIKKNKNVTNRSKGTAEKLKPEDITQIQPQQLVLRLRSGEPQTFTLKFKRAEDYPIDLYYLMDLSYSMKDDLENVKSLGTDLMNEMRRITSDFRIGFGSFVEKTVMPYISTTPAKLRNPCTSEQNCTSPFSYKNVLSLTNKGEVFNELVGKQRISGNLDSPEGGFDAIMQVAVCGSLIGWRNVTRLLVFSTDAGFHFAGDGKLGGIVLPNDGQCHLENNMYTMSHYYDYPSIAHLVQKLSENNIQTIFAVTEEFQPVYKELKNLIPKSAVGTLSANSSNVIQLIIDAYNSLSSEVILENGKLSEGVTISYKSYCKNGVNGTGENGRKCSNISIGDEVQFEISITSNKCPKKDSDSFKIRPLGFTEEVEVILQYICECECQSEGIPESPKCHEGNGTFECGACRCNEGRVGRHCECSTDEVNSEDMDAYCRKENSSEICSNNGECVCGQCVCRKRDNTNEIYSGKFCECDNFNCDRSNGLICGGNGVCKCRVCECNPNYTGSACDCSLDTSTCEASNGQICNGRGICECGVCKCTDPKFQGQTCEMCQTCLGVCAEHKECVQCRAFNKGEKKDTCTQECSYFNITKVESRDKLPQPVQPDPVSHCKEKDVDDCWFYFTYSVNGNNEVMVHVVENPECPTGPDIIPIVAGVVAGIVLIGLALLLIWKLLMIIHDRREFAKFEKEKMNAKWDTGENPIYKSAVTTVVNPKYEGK
Method: (§3) JAM2-Fc adhesion to T cell lines was performed by capture of fusion protein by goat anti-mouse coated 96 well plates as described in Cunningham et al., J. Biol. Chem., 275:34750-34756 (2000). The HSB cells were loaded with calcien-AM (Molecular Probes Inc., Eugene Oreg.) and re-suspended in Tris Buffered Saline (TBS) with or without the addition of 1 mM MnCl₂. Binding to mouse IgG2a was used to subtract background. Soluble JAM3 was generated from a JAM3-Fc fusion that was digested with thrombin and purified to remove the Fc component. Neutralizing anti-JAM3 polyclonal serum was generated in mice using human JAM3 extracellular domain as immunogen. […] Following adhesion for 90 minutes at 37° C., wells were washed 3 times at room temperature. Adhered cells were lyzed and fluorescence quantified in a Cytofluor with excitation at 485/20 nm and emission at 530/25.

[3] = target: T1, human JAM3 (Junctional Adhesion …); test: adhesion of calcein-loaded HSB cells to Fc fusion protein
[4] = target: B1; test: the inventors' reading of the inhibition of HSB adhesion to captured JAM2-Fc by soluble JAM3 (FIG. 13A)
Method: as §3
The inventors believe that soluble JAM3 ectodomain would bind to the JAM2 on the well surface and prevent its interaction with JAM3 on the HSB cell surface. It is concluded that under these conditions, that JAM2 is unable to engage α4 integrin. Therefore, a specific interaction of JAM2 with cell-surface bound JAM3 is necessary before JAM2 can bind α4 integrin. Likewise, if neutralizing anti-JAM3 antibodies are used to prevent JAM2 binding to cell surface JAM3, then JAM2 is also unable to engage integrin (FIG. 13B).

## B1
[1]
  binding result: binds

B2: JAM2-Fc: extracellular domain of human JAM2 secreted from Sf21 insect cells as a fusion to mIgG2a (protein)
chain: FSAPKDQQVVTAVEYQEAILACKTPKKTVSSRLEWKKLGRSVSFVYYQQTLQGDFKNRAEMIDFNIRIKNVTRSDAGKYRCEVSAPSEQGQNLEEDTVTLEVLVAPAVPSCEVPSSALSGTVVELRCQDKEGNPAPEYTWFKDGIRLLENPRLGSQSTNSSYTMNTKTGTLQFNTVSKLDTGEYSCEARNSVGYRRCPGKRMQVDDLNIS
modifications: left off: a dimerising Fc or GST
notes: extracellular domain of human JAM2 secreted from Sf21 insect cells as a fusion to mIgG2a
HSB cells; binding buffer: TBS plus 1 mM calcium, magnesium and manganese, FIG. 7
  capture of HSB cells: quite efficiently
K562 cell lines
  binding to K562 cells: non-existent
HPB-ALL
  capture of HPB-ALL cells: quite efficiently

B3: TBC 772, cyclic hexapeptide (C*WLDVC*), antagonist of alpha 4 integrins (peptide)
peptide: CWLDVC
modifications: bridge 1-6; also: cyclic hexapeptide, bond type between C* residues not given here
[2]
  IC50: ~60 nM

B4: human JAM1-Fc (Fc fusion, UniProt Q9Y624 28-238, looked up)
chain: SVTVHSSEPEVRIPENNPVKLSCAYSGFSSPRVEWKFDQGDTTRLVCYNNKITASYEDRVTFLPTGITFKSVTREDTGTYTCMVSEEGGNSYGEVKVKLIVLVPPSKPTVNIPSSATIGNRAVLTCSEQDGSPPSEYTWFKDGIVMPTNPKSTRAFSNSSYVLNPTTGELVFDPLSASDTGEYSCEARNGYGTPMTSNAVRMEAVERNVGV
notes: not shown: Fc part not described for this construct
[3]
  binding result: no binding

B5: human JAM1-Fc: Fc fusion of JAM1, the human homologue of mouse JAM (protein)
chain: SVTVHSSEPEVRIPENNPVKLSCAYSGFSSPRVEWKFDQGDTTRLVCYNNKITASYEDRVTFLPTGITFKSVTREDTGTYTCMVSEEGGNSYGEVKVKLIVLVPPSKPTVNIPSSATIGNRAVLTCSEQDGSPPSEYTWFKDGIVMPTNPKSTRAFSNSSYVLNPTTGELVFDPLSASDTGEYSCEARNGYGTPMTSNAVRMEAVERNVGV
modifications: left off: a dimerising Fc or GST
notes: Fc fusion of JAM1, the human homologue of mouse JAM
HSB cells
  binding of calcein loaded HSB cells: unable to bind

B6: soluble JAM3 (JAM3 ectodomain from a JAM3-Fc fusion digested with thrombin and purified to remove the Fc) (receptor, human, UniProt Q9BX67 32-241, looked up)
chain: VNLKSSNRTPVVQEFESVELSCIITDSQTSDPRIEWKKIQDEQTTYVFFDNKIQGDLAGRAEILGKTSLKIWNVTRRDSALYRCEVVARNDRKEIDEIVIELTVQVKPVTPVCRVPKAVPVGKMATLHCQESEGHPRPHYSWYRNDVPLPTDSRANPRFRNSSFHLNSETGTLVFTAVHKDDSGQYYCIASNDAGSARCEEQEMEVYDLN
notes: extracellular domain; It was added at a 10-fold molar ratio; also called soluble JAM3 ectodomain
[4]
  binding result: binds

B7: N-terminal Ig-fold of JAM2: first Ig domain of JAM2 synthesized as a secreted protein in insect cells (protein)
chain: FSAPKDQQVVTAVEYQEAILACKTPKKTVSSRLEWKKLGRSVSFVYYQQTLQGDFKNRAEMIDFNIRIKNVTRSDAGKYRCEVSAPSEQGQNLEEDTVTLEV
modifications: left off: a dimerising Fc or GST
notes: first Ig domain of JAM2 synthesized as a secreted protein in insect cells
HSB cells; TBS and TBS+Mn, FIG. 10
  adhesion to HSB cells: capable of adhering to HSB cells
